Article PMC3144414

Legend:
[1] = target: GMPCPP microtubules (polymerised from porcine brain tubulin with GMPCPP) (porcine) (UniProt P02550); assay: in vitro MT-binding assay by epifluorescence microscopy
[2] = target: GDP microtubules (polymerised from porcine brain tubulin with GTP) (porcine) (UniProt P02550); assay: as above

Kd [1]: 250 nM | Kd [2]: 930 nM
Substance: KIF5C monomeric motor domain (K351) (domain or fragment)
